Experimental findings from the nanobody polyreactivity screen of Harvey et al. (2022) are described below.

This data set can be described thus: yeast display, Sf9 membrane polyspecificity reagent, FACS + sequencing; frameworks hold sequencing errors. The method, boiled down:
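A nanobody's polyreactivity label depends on the gate it was sorted from. Yeast display cells were stained with 10% biotinylated, detergent-solubilized Sf9 membrane reagent for 1 hour at 4 °C, enriched on streptavidin microbeads and sorted by FACS. The low and high (top ~1%) gates were set on anti-HA fluorescence for expression and streptavidin fluorescence for reagent binding.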
As to “QVQLEESGGGLVQAGGSLRLTCAASGSTFRYYALGWYRQAPGKERELVAAISGSGGRTYYADSVKGRFTISRDNAKNTVYLQMNSLKPEDTEVYYCNTRGRRTDYDYWGQGTQVTVSS”, the “polyreactivity (PSR sort gate)” value is given as “high polyreactivity”. The entry for “QVQLEESGGGLVQAGGSLRLTCAASGSTFVRYVMGWYRQAPGKERELVAAISRRGGSTYYADSVKGRFTISRDNAKNTVYLEMNSLKPEDTAVYYCARTVGYRTLLESDSWGQGTQVTVSS” is “high polyreactivity”. Turning to “QVQLEESGGGLVQAGGSLRLTCAGSGRIFGIYAMGWYRQAPGKERQLVAAIRDSGSRTYYADSVKGRFTISRDNAKNTVYLQMNRLTPEDTAVYYCAARTYTYPYFGGYQYTYNYWGQGTQVTVSS”, the “polyreactivity (PSR sort gate)” value is recorded as “low polyreactivity”. For “QVQLEESGGGLVQAGGSLSLSCAASGSSLDTYVMGWYRQAPGKEREVVAAISSDTSTNYADSVKGRFTISRDNAKNTVYLQMNSLNPEDTAVYYCAAVGSYYGWYQGFDYWGQGTLVTVSS”, the “polyreactivity (PSR sort gate)” value is given as “low polyreactivity”. To “QVQLEESGGGLVQAGGSLSLTCAASGRTFFTYAMGWYRQAPGKERELVAAIRWTGGRTTYADSVKARFSISRDNAKNTVYLQMISLKPEDTAVYYCAARVGRTYASYSTGNYYWGQGTQVTVSS” belongs “high polyreactivity”. The entry for “QVQLEESGGGLVQEGGSLRLICAASGRIFGSYVMGWYRQAPGKERELVAAISRRGGSTYYADSVKGRFTISRDNAKNTVYLQMNSLKTEVTAVYYCAAEFSPSSNPYDYWGQGTQVTVSS” is “high polyreactivity”; for “QVQLEESGGGLVQEGGSLRLSCAASGRTFYYYDMGWYRQAPGKERELVAAITWSGGSTYYADSVKGRFTISRDNAKNTVYLQRNCLKREDTAVYYCAADVTYSRYEYWGQGSQVTVSS” it is “low polyreactivity”; for “QVQLEESGGGLVQGGGSLRLSCAGSGRIFQLNAMGRYRQAPGIERELVADIRWSSGSTYYADTVKGRFTISRDNAKNSVYFQMYSLKPEDTAVYFCAGRVLYVHRQVYKMDYWGQGTQVTVSS” it is “high polyreactivity”. To “QVQLEESGGGLVQPGGSLRLSCAASGRIFADYAMGWYRQAPGKERELVADIRQSGGRTYYADSVKGRFTISRDNAKNTVYLQMNSLKPEDTALYYCATDYGSWGDYSGKYDYWGQGTQVTVSS” belongs “low polyreactivity”. For “QVQLEESGGGVVQAGGSLRLSCAASGRIFNYYTMGWYRQATGKERELVARINSSGSTNLRRLCEGALHNFTRQCEVYRLFTDEQPETGRYRVYYCNADTKRSSREYEYWGQGTQVTVSS”, the “polyreactivity (PSR sort gate)” value was “low polyreactivity”. The entry for “QVQLEESGGRLVQAGGSLRLSCAASGRIFNYYAMGWYRQAPGQERELVAAISNGGSTYYADSVKGRFTISRDNAKNTVYLQMNSLKPEDTAVYYGAAYQTYYARTELDYWGQGTLVTVSS” is “high polyreactivity”; for “QVQLEESGGVLVQAGGSHRLRCAASGRTIGWYAMGWYRQAPRKERELVAAIRSSTGSTYYADSVKGRFTISRDNAKNTVFLQMNSLKPEDTAVYDCAKRRADYSPRYGYWGQGTQVTVSS” it is “high polyreactivity”. To “QVQLEESGGVLVQAGGSLRLSCAASGRTFGHYAMGWYRPAPGKERELVAAITRDDGTNYADSVKGRFTISGDNAKNTVYLQMNRLKPEDTAVYYCNADVWLRRVYDYWGQGTQVTVSS” belongs “low polyreactivity”; to “QVQLEESGRGLVQAGGSLRLSCAASGSTCYDYAMGWYRQAPGKERELVAASSRIGARTYYADSVKGRFTISRDNAKNTVYLQMNSQKPEDTAGYYCAATRVYSDYKYWGQGTQVTVSS”, “high polyreactivity”. To “QVQLEESGVGLVQAGGSLRLSCAASGRTFLRNAMGWYRQAPGKEMELVAAISWRGGSTYYADSVKGRFTISRDNAKNTVYLEMNSLKPEDTAVYYCNTFPSQYLWYDYWGQGTQVNVSS” belongs “high polyreactivity”; to “QVQLEESVGGLDQAVGSLRLSCAASGFTFNRYTMGWYRQAPGKEREFVASITRSGGSTYYADSVKGRFTISRDNAKNTVYLQMNSLTPEDTAVYYCAPVYQYSSRYDHWGQGTQVTVSS”, “high polyreactivity”; to “QVQLEESVGGLVQAGGSLRISCAASGRTFKLYAMGRKRQAPGKERELVATITRRGGSTYYADSVKGRFTISRDNAKNTVYLQMNSLKPEDTAVYYCASDAIGYYGTYDYWGQGTQVTVSS”, “high polyreactivity”. Take “QVQLEESVGGLVQAGGSLRLSCAASGITFYDYTMGWYRQAPGKERELVAAISSRGGSTYYADSVKGRFTISRDNAKNTVYLQMNSLKPEDTAVYYCNARYNSWRYLAQYNYWGQGTQVTVSS”: the “polyreactivity (PSR sort gate)” value is given as “high polyreactivity”.

Regarding “QVQLEESVGGLVQAGGSLRLSCAASGRTFGRYAMGWYRQAPGKERELVAGISRSGDSTHYADSVKGRFTISRDNAKKTVYLQMNSLKPEDTAVYYCNKETPTIGARKYEDWGQGTQVTVSS”, the “polyreactivity (PSR sort gate)” value is given as “low polyreactivity”. The entry for “QVQLEESVGGLVQAGGSLRLTCAASGSIFKTNAIGWYRQAPGKERELVAAIRASGGSTYYADSVKGRFTISRDNAKNSVYLQMNSLKPEDTAVYYCAARYWFKYYWGQGTQVTVSS” is “low polyreactivity”. To “QVQLEESWGGLVQAGGSLRLSCAASGRTFDTYAMGWNRQAPGKERELVAAITSGGSTYYADSVKGRFTISRDNAKNTVYLQMNSLKPEDTAVYYCAVSGQLYAYRYGYWGQGTQVTVSS” belongs “low polyreactivity”; to “QVQLEETGGGLVQAGGSLRLSCAASGFTFYQYAMGWYRKAPRKERELVAAISSSGTSTYYADSVKGRFTISRDNAKNTVYLQMNSLKPEDTAVYYCAARRYKLFYWGQGTQVTVSS”, “low polyreactivity”; to “QVQLGESCGRLVQAGGSLRLSCADSGLTFSVYAMGWYRQSPGKETELVAAISYSGDSTYADSVKGRFTISRDNAKNTVYLQMNSLKPEDTAGYYCHAPLVHQGYRRWYDYWGQGTQVTVSS”, “low polyreactivity”. To “QVQLGESGGGFVQAGGLLRLSCAASGRTFRVYAMGWYRQAPGKERELVAAITRGGSTYYADSVKGRFTFSRDNAQNTVYLQMNSLKPEDTAVYSCAADVLRTQPIGWYSHSPLEYWGQGTQVTVSS” belongs “high polyreactivity”; to “QVQLGESGGGIVQAGGSLRLSCAASAFIIKYYAMGWYRPAPGKETELVAAIDGSSASTYYADSVKGRFTISRDNAKNTVYLQMNSLKPEDTAVYYCAVARLRRGGVQYGYWGQGTQVTVSS”, “high polyreactivity”. Regarding “QVQLGESGGGIVQAGGSLRLSCAASGRTFAFNAMGWYRQAPGKERELVAAIRWSGGSTYYADSVKGRFTISRDNAKNTVYLQMNSLKPEDTAVYYCATGKWGYFRYNYWGQGTQVTVSS”, the “polyreactivity (PSR sort gate)” value is “high polyreactivity”. For “QVQLGESGGGLFQAGGSLRLSCAASGFTFVYYAMGWYRQAPGKERELVATISGNGGRTYYADSVKGRFTISRDNAKNTVYLQMNSLKPEDTAVYYCAALLYISSVGYDYWGQGTQVTVSS”, the “polyreactivity (PSR sort gate)” value is given as “low polyreactivity”. The entry for “QVQLGESGGGLFQAGGSLRLSCAASVRIFKGYNMGWYREAPRKEMELVAAISKSGGRTYYADSVKGRFTISRDNAKNTVYLQMNSQKPVDTAVYYCAARGGCKRPFGYQLQYDYWGQGTQVTVSS” is “high polyreactivity”. Take “QVQLGESGGGLGQAGGSLSLSCAATGSIFPYNPMGWYRQAPGKERELVATINSRGGRTYYADSVKGRFTISRDNAKNTVYLQMNSLKPEDTAVYYCARYYSSALRYGYWGQGTQVTVSS”: the “polyreactivity (PSR sort gate)” value is given as “low polyreactivity”. The entry for “QVQLGESGGGLLQAGGSHSLICADSGSTIRPNAMGWYTQAPGKERELVATIRGGGTSTYYADSVKGRFTISRDNAKNTVYLQLNSLKPEDTAVYYCAARGFYTGSYPGYYYWGQGTQVTVSS” is “high polyreactivity”; for “QVQLGESGGGLLQAGGSLRLSCAASGRISSQYAMGLYRQAPWKERELFAAISTSGDRTYYADSVKGRFTISRDNAKNTVYLQMNSLKPEDTAVYYCAKEGPYTYGRDIYEYWGQGTQVTVSS” it is “low polyreactivity”; for “QVQLGESGGGLVEAGGSLRLSCAASGSTFNRYAMGWYRQAPGKERELVAAISFSGGRTYYADSVKGRFTISRDNAKNTVYLQMNSLKPEDTAVYYCAKVVYGYFTRAYTYNYWGHGTQVTVSS” it is “high polyreactivity”. With “QVQLGESGGGLVQAGGSLLLSCAASGSIFRHYTMGWDSQAPGKERELVAVISSGGNTNYADSVKGRFTISRDNAKNTVYFQMNSLKPEDTAVYYCAARSHRYYSRVNYWGQGTQVTVSS”, the “polyreactivity (PSR sort gate)” value is reported as “high polyreactivity”.

As to “QVQLGESGGGLVQAGGSLRLICAASGRIFYRNAMGWYRQAPGKERELVAGISNRGGSTYYADSVKGRFTISRDNAKNTVYLQMNSLKPEDTAVYYCATVPFSPPSAGPEYDYWGQGTQVTVSS”, the “polyreactivity (PSR sort gate)” value is on record as “high polyreactivity”.

Take “QVQLGESGGGLVQAGGSLRLSCAASGFIFRAYAMGWYRQAPGKERELVASISSRGGSTYYADSVKGRFTISRDNAKNTVYLQMNSLKPEDTAVYYCNAVYTYFPGWKYDYWGQGTQVTVSS”: the “polyreactivity (PSR sort gate)” value is “high polyreactivity”. The entry for “QVQLGESGGGLVQAGGSLRLSCAASGFTSVRYAKGWYRQAPGKERELVAAITWNGGSTYYADSVKGRFTISRDNAKKSVYLQMNSLKPEDTAVYYCAKDTPYRYSVAYDYWGQGTQVTVSS” is “high polyreactivity”; for “QVQLGESGGGLVQAGGSLRLSCAASGIIFDTYAMGWYRQAPGKQRELVAVISTRGTSTYYADSVKGRFTISRDNAKNTVYLQMNSLKPEDTEVYYCNAFGRYSYPTFDYWGQGTQVTVSS” it is “high polyreactivity”; for “QVQLGESGGGLVQAGGSLRLSCAASGIIFYRYAMGWYRQAPGKERELVAAITWSGVSTSYADSVKGRFTISRDNAKNTVYLQMNSLKQEDTAVYYCNKDPGTLYGDMDSWGQGTQVTVSS” it is “low polyreactivity”. The entry for “QVQLGESGGGLVQAGGSLRLSCAASGRIFGGNAMGRYRQAPGKERELVATISSDGSTNYADSVKGRFTISRDIAKNTVYLQMNSLKPEDTAVYYCAKGFYTLTPHGMDYWGQGTQVTVSS” is “low polyreactivity”; for “QVQLGESGGGLVQAGGSLRLSCAASGRIFNVYAMGWYRQAPGKERELVAAISTGSPTYYADSVKGRFTISRDNAKNTVYLQMNSLKPEDTAVYYCATGYIHGDYWSFRHQYYYWGQGTQVTVSS” it is “low polyreactivity”. The entry for “QVQLGESGGGLVQAGGSLRLSCAASGRIFSHNAMGWDRQAPGKERELVAVISRSGTGTYYADSVKGRFTISRDNAKNTVYLQMNSLKPEDTAVYYCNTYYEWWYYWGQGTQVTVSS” is “high polyreactivity”.
